One experiment addresses T1, CDCP1 (UniProt Q9H5V8 30-836, limits assumed).
T1 construct: whole, on cells; Endogenous protein on HT-1376 cells; also called cell surface CDCP1
T1 sequence (looked up): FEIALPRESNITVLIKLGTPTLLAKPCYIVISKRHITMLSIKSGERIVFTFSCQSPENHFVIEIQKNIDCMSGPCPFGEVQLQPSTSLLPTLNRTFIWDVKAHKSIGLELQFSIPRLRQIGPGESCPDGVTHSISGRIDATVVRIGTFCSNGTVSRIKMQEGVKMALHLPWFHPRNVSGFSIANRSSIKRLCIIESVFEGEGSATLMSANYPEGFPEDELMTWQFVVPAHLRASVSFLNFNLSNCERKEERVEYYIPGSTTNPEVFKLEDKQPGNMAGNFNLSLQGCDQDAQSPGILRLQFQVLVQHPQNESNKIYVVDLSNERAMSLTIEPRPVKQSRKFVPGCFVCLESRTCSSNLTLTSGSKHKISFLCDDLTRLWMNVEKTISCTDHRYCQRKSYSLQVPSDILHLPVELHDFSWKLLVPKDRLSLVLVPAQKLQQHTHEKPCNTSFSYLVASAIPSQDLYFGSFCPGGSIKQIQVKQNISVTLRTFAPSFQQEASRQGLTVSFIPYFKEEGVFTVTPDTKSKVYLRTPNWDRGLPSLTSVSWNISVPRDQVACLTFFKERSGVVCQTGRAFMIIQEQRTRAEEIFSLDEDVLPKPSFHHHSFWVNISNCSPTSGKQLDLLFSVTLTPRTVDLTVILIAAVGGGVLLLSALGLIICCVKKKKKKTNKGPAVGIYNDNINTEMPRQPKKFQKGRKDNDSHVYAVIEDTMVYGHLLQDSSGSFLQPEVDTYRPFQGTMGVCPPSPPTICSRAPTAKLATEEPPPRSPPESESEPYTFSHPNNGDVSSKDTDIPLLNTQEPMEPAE
Put plainly: statement in Example 2; no direct binding assay, only degradation on HT-1376 cells. As to the method:
(§1) After incubation at 37° C. for the designated time point, cells were washed with phosphate-buffered saline (PBS), lifted with versene, and harvested by centrifugation at 300×g for 5 min at 4° C. Samples were then tested by western blotting or flow cytometry to quantify protein levels.
(§2) Western blotting: Cell pellets were lysed with 1×RIPA buffer containing cOmplete mini protease inhibitor cocktail (Sigma-Aldrich) at 4° C. for 40 min. Lysates were centrifuged at 16,000×g for 10 min at 4° C. and protein concentrations were normalized using BCA assay (Pierce). 4×NuPAGE LDS sample buffer (Invitrogen) and 2-mercaptoethanol (BME) was added to the lysates and boiled for 10 min. Equal amounts of lysates were loaded onto a 4-12% Bis-Tris gel and ran at 200V for 37 min. The gel was incubated in 20% ethanol for 10 min and transferred onto a polyvinylidene difluoride (PVDF) membrane. The membrane was blocked in PBS with 0.1% Tween-20+5% bovine serum albumin (BSA) for 30 min at room temperature with gentle shaking. Membranes were incubated overnight with primary antibodies at respective dilutions at 4° C. with gentle shaking in PBS+0.2% Tween-20+5% BSA. […] Band intensities were quantified using Image Studio Software (LI-COR). […]

A further experiment addresses T2, Nectin-4 (UniProt Q96NY8 32-510, limits assumed).
T2 construct: whole, on cells; Endogenous receptor on HT-1376 cells
T2 sequence (looked up): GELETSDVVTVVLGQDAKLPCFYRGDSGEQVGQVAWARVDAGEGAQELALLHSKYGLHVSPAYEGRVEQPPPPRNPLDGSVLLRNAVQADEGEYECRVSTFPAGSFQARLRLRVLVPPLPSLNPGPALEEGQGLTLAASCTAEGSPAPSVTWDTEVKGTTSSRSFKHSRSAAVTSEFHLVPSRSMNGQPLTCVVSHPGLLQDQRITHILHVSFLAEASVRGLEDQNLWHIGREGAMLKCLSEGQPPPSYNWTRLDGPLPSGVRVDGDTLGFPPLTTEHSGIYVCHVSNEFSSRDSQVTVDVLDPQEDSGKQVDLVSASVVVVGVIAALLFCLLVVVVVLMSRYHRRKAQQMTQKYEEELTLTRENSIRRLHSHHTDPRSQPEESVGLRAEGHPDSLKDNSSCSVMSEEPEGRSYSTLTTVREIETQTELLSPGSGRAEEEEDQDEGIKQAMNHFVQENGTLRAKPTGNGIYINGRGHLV
Described as above. As to the method:
as §1, §2

B1: Enfortumab-4A06 bispecific antibody (bispecific antibody)
heavy 1: not shown
light 1: DIQMTQSPSSVSASVGDRVTITCRASQGISGWLAWYQQKPGKAPKFLIYAASTLQSGVPSRFSGSGSGTDFTLTISSLQPEDFATYYCQQANSFPPTFGGGTKVEIKRTVAAPSVFIFPPSDEQLKSGTASVVCLLNNFYPREAKVQWKVDNALQSGNSQESVTEQDSKDSTYSLSSTLTLSKADYEKHKVYACEVTHQGLSSPVTKSFNRGEC
heavy 2: EISEVQLVESGGGLVQPGGSLRLSCAASGFNLSYYYIHWVRQAPGKGLEWVASIYSSSSYTSYADSVKGRFTISADTSKNTAYLQMNSLRAEDTAVYYCARAYYGFDYWGQGTLVTVSSASTKGPSVFPLAPSSKSTSGGTAALGCLVKDYFPEPVTVSWNSGALTSGVHTFPAVLQSSGLYSLSSVVTVPSSSLGTQTYICNVNHKPSNTKVDKKVEPKSCDKTHTCPPCPAPELLGGPSVFLFPPKPKDTLMISRTPEVTCVVVDVSHEDPEVKFNWYVDGVEVHNAKTKPREEQYNSTYRVVSVLTVLHQDWLNGKEYKCKVSNKALPAPIEKTISKAKGQPREPQVYTLPPIRELMTSNQVSLSCAVKGFYPSDIAVEWESNGQPENNYKTTPPVLDSDGSFFLVSKLTVDKSRWQQGNVFSCSVMHEALHNHYTQKSLSLSPGK
light 2: DIQMTQSPSSLSASVGDRVTITCRASQSVSSAVAWYQQKPGKAPKLLIYSASSLYSGVPSRFSGSRSGTDFTLTISSLQPEDFATYYCQQSYYYYPITFGQGTKVEIKRTVAAPSVFIFPPSDSQLKSGTASVVCLLNNFYPREAKVQWKVDNALQSGNSQESVTEQDSKDSTYSLSSTLTLSKADYEKHKVYACEVTHQGLSSPVTKSFNRGECGGSDYKDDDDK
notes: It has four different chains; also called Enfortumab (Nectin-4)-4A06 (CDCP1); Enfortumab-4A06 antibody
With B1, the binding result with CDCP1 and with Nectin-4 was “binds” each time.

Source of the values: patent publication US20240084030A1 (University of California, published 2024).
